Reference: the supplement of paper PMC10567573
± gives the standard deviation.

Assay: protein stability index of a GFP-peptide fusion (GPS, HEK-293T) (PSI 1-6); higher = more stable
[1] = treatment: DMSO, c terminus: a fixed tail appended
[2] = treatment: MLN4924 1 uM, 8 h, c terminus: a fixed tail appended
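Also: 24-mer peptide tiles fused after GFP, lentivirally expressed, FACS-sorted into six equal bins by GFP/DsRed ratio, decoded by Illumina sequencing, PSI is the read-weighted mean bin number.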

LRRIRAESGTKGLFAGFLPRIIKA [SLC25A39]
protein stability index [1]: 2.05 ± 0.27
protein stability index [2]: 2.15 ± 0.33

HSDHSSEMSLPEVQKDKYPEEFSL [SPATS1]
protein stability index [1]: 5.3 ± 0.29
protein stability index [2]: 5.26 ± 0.29

CVRRRYSDFEWLKNELERDSKIVV [SNX12]
protein stability index [1]: 2.7 ± 0.17
protein stability index [2]: 2.62 ± 0.49

RFNRIGLPPKVGSFQLFVEGYKDA [PI4K2A]
protein stability index [1]: 2.39 ± 0.29
protein stability index [2]: 2.77 ± 0.51

LGSAPLDQEPLLSIDLGTAHSAAV [NEK8]
protein stability index [1]: 4.08 ± 0.22
protein stability index [2]: 4.11 ± 0.15

MLKAEETCAPSVSYFKCVQKEVLP [CCND1]
protein stability index [1]: 3.52 ± 0.12
protein stability index [2]: 3.55 ± 0.24

LDREIRLQRLSHSGSRVRVGFRLC [SCNN1D]
protein stability index [1]: 2.39 ± 0.17
protein stability index [2]: 2.48 ± 0.16

VGYTRGLHVWQITWAMRQRGTHAV [SPSB1]
protein stability index [1]: 2.37 ± 0.52
protein stability index [2]: 2.55 ± 0.52

AQEQLRPQTPEPVEGRKHVDVQTE [RSPH3]
protein stability index [1]: 5.41 ± 0.31
protein stability index [2]: 5.34 ± 0.24

HLQLLGAVCMFLASKLKETSPLTA [CCND2]
protein stability index [1]: 2.48 ± 0.34
protein stability index [2]: 2.36 ± 0.25

RWASAPPLYTLIDVLKYSYVRLVC [ZSWIM9]
protein stability index [1]: 2.6 ± 0.45
protein stability index [2]: 3.01 ± 0.74

PLPKRVAKVPRPPSTLLPTPEEQG [FOXJ1]
protein stability index [1]: 4.97 ± 0.29
protein stability index [2]: 4.82 ± 0.34

QALQHVQASCDEAHKMKFSDLFSL [INTS3]
protein stability index [1]: 2.86 ± 0.39
protein stability index [2]: 2.95 ± 0.33

LFSNSDHQRDGTLGALHTSSKPTA [SASS6]
protein stability index [1]: 4.36 ± 0.27
protein stability index [2]: 4.51 ± 0.065

SSPDLDDMKLIILANRLCLPHLVA [RHOBTB2]
protein stability index [1]: 2.55 ± 0.5
protein stability index [2]: 2.44 ± 0.19

ASGNATQTESGSEEVSSTVHIETF [C10orf62]
protein stability index [1]: 5.11 ± 0.21
protein stability index [2]: 5.27 ± 0.2

LFLDLLQSYKDLCERHEKGVLHKH [SNX8]
protein stability index [1]: 2.49 ± 0.12
protein stability index [2]: 2.64 ± 0.37

RQIIKLNRRLQLLEEENKERAKRE [MFF]
protein stability index [1]: 3.81 ± 0.36
protein stability index [2]: 4.18 ± 0.23

YRQPIPVQELVLEDLQDGDVRMGG [NET1]
protein stability index [1]: 4.4 ± 0.29
protein stability index [2]: 4.56 ± 0.34

RRLEQRWGFGLEELYGLALRFFKE [ACBD3]
protein stability index [1]: 2.53 ± 0.8
protein stability index [2]: 2.31 ± 0.63

QGPPMVPPYQGGPPRPPMGMRPPV [ZNF207]
protein stability index [1]: 4.31 ± 0.12
protein stability index [2]: 4.18 ± 0.081

SSPDDKLLTSPRAINNLVLQGCSS [KLHL14]
protein stability index [1]: 3.99 ± 0.17
protein stability index [2]: 4.14 ± 0.23

TESEAHYSSQLSQVQSLITNVESQ [KRT34]
protein stability index [1]: 4.83 ± 0.31
protein stability index [2]: 4.78 ± 0.21

TQEKKAESKEPIEEEPTGAGLNKD [SDE2]
protein stability index [1]: 5.65 ± 0.12
protein stability index [2]: 5.41 ± 0.28

MMNQSMMGMNMNIGMSAAGMGLTG [CLINT1]
protein stability index [1]: 2.46 ± 0.39
protein stability index [2]: 2.53 ± 0.3

ITYPPGVKEISDKISKEEMVRRLK [PDS5B]
protein stability index [1]: 3.49 ± 0.36
protein stability index [2]: 3.73 ± 0.44

HIFPASRWEPYDPEKKWDKYTIR [FAM50A]
protein stability index (treatment: DMSO, c terminus: native): 2.82 ± 0.45
protein stability index (treatment: MLN4924 1 uM, 8 h, c terminus: native): 3.15 ± 0.51

VITALKCHKYDRNIQVTGSAALFY [ZER1]
protein stability index [1]: 2.84 ± 0.18
protein stability index [2]: 2.85 ± 0.47

VASGLQFDVETRHVFIGDHSGQVT [WDFY2]
protein stability index [1]: 2.91 ± 0.54
protein stability index [2]: 3.12 ± 0.46

TQHFVQENYLEYRQVPGSDPACYE [MAGEA3]
protein stability index [1]: 4.26 ± 0.081
protein stability index [2]: 4.34 ± 0.12

SRELEPELRRRRYEYDHWDAAIHG [ALKBH7]
protein stability index [1]: 3.87 ± 0.25
protein stability index [2]: 3.92 ± 0.18

FLGETKQETLTNISAVNYDFDEEY [DAPK3]
protein stability index [1]: 4.77 ± 0.35
protein stability index [2]: 4.84 ± 0.24

DSLEKTDDDKYKITLKYPHYFPVM [NLN]
protein stability index [1]: 2.73 ± 0.27
protein stability index [2]: 2.7 ± 0.28

ADFGRLVNLQHLDLLNNKLVTLPV [LRRC59]
protein stability index [1]: 2.3 ± 0.2
protein stability index [2]: 2.37 ± 0.21

DALEDSLEEVAVQQTGDDDEVDDF [PBXIP1]
protein stability index [1]: 5.59 ± 0.28
protein stability index [2]: 5.67 ± 0.15

LQHEERETRQKKLEVAMEEEGLAD [STK38L]
protein stability index [1]: 5.59 ± 0.28
protein stability index [2]: 5.56 ± 0.11
